Key:
Test in all cases: fluorescence polarization
Ec Hfq K31W = Ec Hfq K31W (Escherichia coli, UniProt P0A6X3 1-102, K31W)
Sa Hfq WT = Sa Hfq WT (Staphylococcus aureus, UniProt A0A0H3JV59 1-77)
Ec Hfq F11W = Ec Hfq F11W (Escherichia coli, UniProt P0A6X3 1-102, F11W)
Ec Hfq F39W = Ec Hfq F39W (Escherichia coli, UniProt P0A6X3 1-102, F39W)
Sa Hfq F25W = Sa Hfq F25W (Staphylococcus aureus, UniProt A0A0H3JV59 1-77, F25W)
Ec Hfq G77W = Ec Hfq G77W (Escherichia coli, UniProt P0A6X3 1-102, G77W)
Ec Hfq Y25W = Ec Hfq Y25W (Escherichia coli, UniProt P0A6X3 1-102, Y25W)
Ec Hfq Q33W = Ec Hfq Q33W (Escherichia coli, UniProt P0A6X3 1-102, Q33W)
Ec Hfq R17W = Ec Hfq R17W (Escherichia coli, UniProt P0A6X3 1-102, R17W)
Sa Hfq Q31W = Sa Hfq Q31W (Staphylococcus aureus, UniProt A0A0H3JV59 1-77, Q31W)
Hfq WT = Hfq WT (Escherichia coli, UniProt P0A6X3 1-102)
Ec Hfq Q95W = Ec Hfq Q95W (Escherichia coli, UniProt P0A6X3 1-102, Q95W)
Ec Hfq Y83W = Ec Hfq Y83W (Escherichia coli, UniProt P0A6X3 1-102, Y83W)

## UUUUUU (ssRNA) [U6 (fluorescein)]
Ec Hfq K31W
  Kd: 1120 ± 73 nM
Sa Hfq WT
  binding result: binds
Ec Hfq F11W
  Kd: 503 ± 55.5 nM
Ec Hfq F39W
  Kd: 2000 ± 400 nM
Sa Hfq F25W
  Kd: 41.9 ± 25.1 nM
Ec Hfq G77W
  Kd: 380 ± 93.2 nM
Ec Hfq Y25W
  Kd: 837 ± 62.5 nM
Ec Hfq Q33W
  Kd: 405 ± 182 nM
Ec Hfq R17W
  Kd: 1600 ± 80 nM
Sa Hfq Q31W
  Kd: 114 ± 23.2 nM
Hfq WT
  Kd: 766 ± 73.7 nM
Ec Hfq Q95W
  Kd: 848 ± 289 nM
Ec Hfq Y83W
  Kd: 778 ± 254 nM
